Literature values in publication PMC6611588, “Quantitative high-throughput screening assays for the discovery and development of SIRPα-CD47 interaction inhibitors” (PLoS ONE, 2019).
“And” between values parts separate entries of the source, which are not always exact repeats. Equal entries are not always repeated.

Molecular target: CD47 (Homo sapiens) (UniProt Q08722)
Details: cited from earlier work

SIRPα, sequence (P78324 31-373): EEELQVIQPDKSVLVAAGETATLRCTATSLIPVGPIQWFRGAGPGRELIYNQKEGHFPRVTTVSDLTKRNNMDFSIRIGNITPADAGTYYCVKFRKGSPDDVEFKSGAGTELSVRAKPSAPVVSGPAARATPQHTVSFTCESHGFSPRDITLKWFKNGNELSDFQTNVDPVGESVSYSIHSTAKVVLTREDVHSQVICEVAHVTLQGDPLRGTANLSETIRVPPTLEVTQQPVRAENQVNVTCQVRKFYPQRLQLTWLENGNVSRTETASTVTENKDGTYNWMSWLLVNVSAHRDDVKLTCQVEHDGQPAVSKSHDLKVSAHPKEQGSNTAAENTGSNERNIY
CD47 (Homo sapiens), sequence (Q08722 19-323): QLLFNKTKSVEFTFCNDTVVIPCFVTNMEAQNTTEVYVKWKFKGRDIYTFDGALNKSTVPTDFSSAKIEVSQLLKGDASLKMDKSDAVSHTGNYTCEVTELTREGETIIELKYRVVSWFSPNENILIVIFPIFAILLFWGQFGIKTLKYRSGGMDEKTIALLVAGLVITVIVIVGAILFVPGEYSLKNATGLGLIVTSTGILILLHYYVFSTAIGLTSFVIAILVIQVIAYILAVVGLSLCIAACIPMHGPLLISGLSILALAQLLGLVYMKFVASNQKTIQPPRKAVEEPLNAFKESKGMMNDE

SIRPα (from UniProt P78324)
Kd: 300 nM and 279 nM
